Publication PMC7138525 (Cell reports, 2020)

B1: VHH JLK-G12 (from GST fusion) (VHH)
VHH: QVQLVESGGGLVQAGGSLRLSCAASEFRAEHFAVGWFRQAPGKEREGVSCVDASGDSTAYADSVKGRFTISRDNNKNVVYLQMDSLEPEDTGDYYCGASYFTVCAKSMRKIEYRYWGQGTQVTVSS
B2: VHH JLK-G12, His6-tagged thioredoxin fusion with carboxy-terminal E-tag (VHH)
VHH: QVQLVESGGGLVQAGGSLRLSCAASEFRAEHFAVGWFRQAPGKEREGVSCVDASGDSTAYADSVKGRFTISRDNNKNVVYLQMDSLEPEDTGDYYCGASYFTVCAKSMRKIEYRYWGQGTQVTVSS
B3: VHH JLI-G10 (VHH)
VHH: QVQLVESGGGLVQAGGSLRLSCAASILTYDLDYYYIGWVRQAPGKEREGVSCISSTDGATYYADSVKGRFTISRNNAKNTVYLQMNNLKPEDTAIYYCAAAPLAGRYCPASHEYGYWGQGTQVTVSS
B4: VHH JLI-G10, His6-tagged thioredoxin fusion with carboxy-terminal E-tag (VHH)
VHH: QVQLVESGGGLVQAGGSLRLSCAASILTYDLDYYYIGWVRQAPGKEREGVSCISSTDGATYYADSVKGRFTISRNNAKNTVYLQMNNLKPEDTAIYYCAAAPLAGRYCPASHEYGYWGQGTQVTVSS
B5: VHH JLO-G11, His6-tagged thioredoxin fusion with carboxy-terminal E-tag (VHH)
VHH: QVQLAESGGGLVQPGGSLRLSCEASGFHLEHFAVGWFRQAPGKEREGVSCISASGDSTTYADSVKGRSTISKDNAKNAVYLQMDSLRPEDTGDYYCAASHFSVCGKNIRKIEYRYWGQGTPVTVSS
B6: VHH JLI-H11 (from GST fusion) (VHH)
VHH: QVQLVESGGGLVQPGESLRLSCGASGMSLDYYAIAWYRQAPGKEREGVSCISVSGSSAQYLDSVRGRFIISKDNTKSTAYLQMNSLKPEDTAVYYCAALADCAGYASLTFDFDSWGQGTQVAVSS
B7: VHH JLI-H11, His6-tagged thioredoxin fusion with carboxy-terminal E-tag (VHH)
VHH: QVQLVESGGGLVQPGESLRLSCGASGMSLDYYAIAWYRQAPGKEREGVSCISVSGSSAQYLDSVRGRFIISKDNTKSTAYLQMNSLKPEDTAVYYCAALADCAGYASLTFDFDSWGQGTQVAVSS

Assays:
[1] = biological target: T1, HCB, receptor-binding domain of BoNT/B1 (E859–E1291) (UniProt P10844); experiment: SEC
[2] = biological target: T2, HCB, recombinant BoNT preparation coated for ELISA (Clostridium botulinum, BoNT/B subtype B1); experiment: ELISA
T2 chain: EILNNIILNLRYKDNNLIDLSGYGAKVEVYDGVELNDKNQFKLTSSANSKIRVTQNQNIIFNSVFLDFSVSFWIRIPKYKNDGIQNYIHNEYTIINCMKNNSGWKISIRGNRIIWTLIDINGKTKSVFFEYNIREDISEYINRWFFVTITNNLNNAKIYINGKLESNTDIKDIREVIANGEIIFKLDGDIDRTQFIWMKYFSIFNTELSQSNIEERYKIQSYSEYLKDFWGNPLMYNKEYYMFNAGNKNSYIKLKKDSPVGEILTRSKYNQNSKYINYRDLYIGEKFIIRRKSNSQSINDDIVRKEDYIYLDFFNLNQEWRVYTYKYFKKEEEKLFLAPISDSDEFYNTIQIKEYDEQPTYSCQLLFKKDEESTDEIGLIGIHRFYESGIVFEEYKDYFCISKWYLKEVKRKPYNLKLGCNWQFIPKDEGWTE

[3] = biological target: T1, HCB, receptor-binding domain of BoNT/B1 …; experiment: crystal structure

Binder	binding result [2]	other results
B1	–	binding result [1]: binds
B2	binds	–
B3	–	binding result [3]: binds
B4	binds	–
B5	binds	–
B6	–	binding result [1]: binds
B7	binds	–
